Legend:
[1] = molecular target: intact human Factor IX (human) (UniProt P00740); test: cell-based or functional assay
[2] = molecular target: Factor IXα (human) (UniProt P00740); test: ELISA affinity determination (Kim et al.)
[3] = molecular target: intact human Factor IX (human) (UniProt P00740); test: ELISA affinity determination (Kim et al.)
[4] = molecular target: Factor II (UniProt P00734); test: affinity chromatography on CLB-FIX D4-Sepharose; 73 ml
[5] = molecular target: Factor X (UniProt P00742); test: as above
[6] = molecular target: Factor II (UniProt P00734); test: affinity chromatography on CLB-FIX D4-Sepharose; 440 ml
[7] = molecular target: Factor X (UniProt P00742); test: as above
[8] = molecular target: Factor IXaβ (human) (UniProt P00740); test: CLB-FIX D4 affinity chromatography, Factor IXα mixture applied
[9] = molecular target: intact human Factor IX (human) (UniProt P00740); test: as above
[10] = molecular target: intact human Factor IX (human) (UniProt P00740); test: CLB-FIX D4 affinity chromatography, purified Factor IX applied
[11] = molecular target: Factor IXaβ (human) (UniProt P00740); test: CLB-FIX D4 affinity chromatography, Factor IXaβ mixture applied
[12] = molecular target: intact human Factor IX (human) (UniProt P00740); test: as above
[13] = molecular target: intact human Factor IX (human) (UniProt P00740); test: affinity chromatography on CLB-FIX D4-Sepharose, clotting activity; 73 ml
[14] = molecular target: intact human Factor IX (human) (UniProt P00740); test: affinity chromatography on CLB-FIX D4-Sepharose, clotting activity; 440 ml
[15] = molecular target: intact human Factor IX (human) (UniProt P00740); test: affinity chromatography of prothrombin complex concentrate, elution with 2 M KSCN

Chain of UniProt P00742 (P00742 41-488 limits assumed): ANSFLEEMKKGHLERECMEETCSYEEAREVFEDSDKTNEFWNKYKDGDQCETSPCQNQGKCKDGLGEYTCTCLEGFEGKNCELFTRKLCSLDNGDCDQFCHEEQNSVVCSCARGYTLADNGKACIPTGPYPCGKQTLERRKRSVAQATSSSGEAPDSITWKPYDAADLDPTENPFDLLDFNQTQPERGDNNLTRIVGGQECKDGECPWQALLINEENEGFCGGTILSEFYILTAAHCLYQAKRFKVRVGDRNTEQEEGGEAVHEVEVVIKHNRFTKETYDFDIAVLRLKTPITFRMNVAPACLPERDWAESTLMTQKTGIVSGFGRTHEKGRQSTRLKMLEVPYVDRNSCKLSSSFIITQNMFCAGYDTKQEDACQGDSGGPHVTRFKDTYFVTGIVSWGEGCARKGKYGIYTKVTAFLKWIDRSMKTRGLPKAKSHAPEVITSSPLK

Factor IX clotting activity (one stage coagulation assay), residual activity after incubation with antibody [1]: > 90%
Kd [2]: 0.3 nM
fold alteration of affinity (Factor IXα against intact Factor IX) [2]: > 4 fold
Kd [3]: 1.2 nM
FII in eluate (U/ml) [4]: < 0.008 U/ml
FX in eluate (U/ml) [5]: < 0.003 U/ml
FII in flow through (U/ml) [6]: 49.7 U/ml
FX in flow through (U/ml) [7]: 51 U/ml
FIXaβ eluted [8]: < 0.001 µg
FIXaβ unbound [8]: 7 µg
Intact FIX eluted [9]: 85 µg
Intact FIX eluted [10]: 588 µg
Intact FIX unbound [10]: 23 µg
Protein eluted [10]: 580 µg
Protein unbound [10]: 20 µg
FIXaβ eluted [11]: < 0.001 µg
FIXaβ unbound [11]: 550 µg
Intact FIX eluted [12]: 50 µg
FIX in eluate (U/ml) [13]: 98.7 U/ml
FIX in flow through (U/ml) [14]: 10.4 U/ml
Factor IX activity recovered in the eluate [15]: 67%
Substance: monoclonal antibody CLB-FIX D4
